Patent publication EP4703390A1 (Chia Tai Tianqing Pharmaceutical Group Co., Ltd., dated 2026)
Numbering of substitutions follows the chain as printed. One block for each binder: values may come before it.

Key:
[1] = molecular target: T1, Human c-Met-His (SinoBiological, Cat. No. 10692-H08H) (human, UniProt P08581 25-932); experiment: SPR (Biacore), antibody captured on anti-hIgG Fc chip, human c-Met-His as analyte
T1 construct: Bought protein; also called c-Met-His protein; human c-Met protein; not shown: His tag
T1 sequence (P08581 25-932 limits assumed): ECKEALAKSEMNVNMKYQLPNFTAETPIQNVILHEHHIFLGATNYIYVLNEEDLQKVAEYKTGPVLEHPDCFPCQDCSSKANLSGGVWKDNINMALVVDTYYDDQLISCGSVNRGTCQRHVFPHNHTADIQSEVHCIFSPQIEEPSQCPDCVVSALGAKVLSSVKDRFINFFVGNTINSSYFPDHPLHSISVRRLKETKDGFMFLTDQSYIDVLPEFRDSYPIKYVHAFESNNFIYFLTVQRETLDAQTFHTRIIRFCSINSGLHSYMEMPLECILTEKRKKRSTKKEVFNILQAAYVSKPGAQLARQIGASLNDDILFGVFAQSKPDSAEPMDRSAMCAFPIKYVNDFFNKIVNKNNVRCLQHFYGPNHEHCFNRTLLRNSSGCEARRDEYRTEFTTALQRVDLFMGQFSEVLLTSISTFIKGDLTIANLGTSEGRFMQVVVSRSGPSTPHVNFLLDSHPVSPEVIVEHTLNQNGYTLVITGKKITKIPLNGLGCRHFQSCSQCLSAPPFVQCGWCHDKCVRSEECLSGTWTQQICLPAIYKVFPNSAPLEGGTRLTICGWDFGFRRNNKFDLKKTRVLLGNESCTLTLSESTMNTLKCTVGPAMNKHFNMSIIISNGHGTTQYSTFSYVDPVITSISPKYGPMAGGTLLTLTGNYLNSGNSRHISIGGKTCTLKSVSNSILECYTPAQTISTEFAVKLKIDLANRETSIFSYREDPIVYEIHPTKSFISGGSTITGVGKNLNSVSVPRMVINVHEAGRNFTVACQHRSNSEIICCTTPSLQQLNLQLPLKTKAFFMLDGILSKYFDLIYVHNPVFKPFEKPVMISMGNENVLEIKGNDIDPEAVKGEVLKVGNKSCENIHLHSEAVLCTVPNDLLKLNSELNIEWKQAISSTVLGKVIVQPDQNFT

[2] = molecular target: T2, EGFR and c-Met on the surface of tumor cells (human, UniProt P00533 25-1210; P08581 25-1390); experiment: cell-based or functional assay
[3] = molecular target: T2, EGFR and c-Met on the surface of tumor …; experiment: flow cytometry, NCI-H1975 cells (medium EGFR, low to medium c-Met)
[4] = molecular target: T2, EGFR and c-Met on the surface of tumor …; experiment: cell-based or functional assay; remark: listed apart in the source
[5] = molecular target: T2, EGFR and c-Met on the surface of tumor …; experiment: cell-based or functional assay; remark: listed apart in the source
[6] = molecular target: T2, EGFR and c-Met on the surface of tumor …; experiment: flow cytometry, A431 cells (high EGFR, low c-Met)
[7] = molecular target: T2, EGFR and c-Met on the surface of tumor …; experiment: flow cytometry, NCI-H1993 cells (medium EGFR, high c-Met)

B1: anti-EGFR/anti-c-Met multispecific antibody V12 (bispecific antibody, human IgG1, kappa)
chain: QVQLVESGGDSVQAGGSLRLSCAASAHAYSSGCMGWFRQAPGKGREGVATIYTRNDFTYYSDSVKGRFTISRDDAKNTVYLQVNSLKAEDTAMYYCAAGSPFRYAGAWNVCGLKEEDYNYWGQGTLVTVSSGGGGSGGGGSQVQLVESGGGLVQPGGSLRLSCAASGYSYSANCVGWFYQAPGKEREGVAAINTGGETATYADFVKGRFTISQDYAKNTVYLQMNSLKSEDTGMYYCAAVGTRKYWDECSLSQHAYKNWGQGTLVTVSSGEPKSSDKTHTCPPCPAPELLGGPSVFLFPPKPKDTLMISRTPEVTCVVVDVSHEDPEVKFNWYVDGVEVHNAKTKPREEQYNSTYRVVSVLTVLHQDWLNGKEYKCKVSNKALPAPIEKTISKAKGQPREPQVCTLPPSREEMTKNQVSLSCAVKGFYPSDIAVEWESNGQPENNYKTTPPVLDSDGSFFLVSKLTVDKSRWQQGNVFSCSVMHEALHNRFTQKSLSLSPGK
heavy: not shown
light: not shown
notes: Three chains, trivalent: 1B-1B6 VHH - 1B-1C7 VHH - Fc plus anti-EGFR Fab arm; knob-into-hole Fc; expressed in FUT8-/- CHO-S cells
Kd [1]: 0.325 nM
koff [1]: 4.62e-05 s⁻¹
kon [1]: 142000 M⁻¹ s⁻¹

B2: anti-EGFR/anti-c-Met multispecific antibody V74 (bispecific antibody, human IgG1, kappa)
chain: EVQLVESGGGSVQAGGSLRLSCAVSGFTVSSNFMAWFRQAPGKGREWVSTITTGAGNTAYADSVKGRFTISEDNSKNTAYLQMNSLRAEDTAVYYCAAGRGGFWRPAEYDFWGQGTTVTVSSGGGGSQVQLVESGGGSVQPGGSLRLSCAASGYSYSANCVGWFRQAPGKGREGVSAINTGGETATYADFVKGRFTISRDNAKNTVYLQMNSLRAEDTAVYYCAAVGTRKYWDECSLSQHAYKNWGQGTLVTVSSGEPKSSDKTHTCPPCPAPELLGGPSVFLFPPKPKDTLMISRTPEVTCVVVDVSHEDPEVKFNWYVDGVEVHNAKTKPREEQYNSTYRVVSVLTVLHQDWLNGKEYKCKVSNKALPAPIEKTISKAKGQPREPQVCTLPPSREEMTKNQVSLSCAVKGFYPSDIAVEWESNGQPENNYKTTPPVLDSDGSFFLVSKLTVDKSRWQQGNVFSCSVMHEALHNRYTQKSLSLSPGK
heavy: not shown
light: not shown
notes: knob-into-hole Fc; expressed in FUT8-/- CHO-S cells
Kd [1]: 0.548 nM
koff [1]: 0.000128 s⁻¹
kon [1]: 234000 M⁻¹ s⁻¹

B5: anti-EGFR/anti-c-Met multispecific antibody V35 (bispecific antibody, human IgG1, kappa)
chain: QVQLLESGGGSVQAGGSLRLSCAASGHTYSSGCMGWFRQAPGKGREGVATIYTRNDFTYYSDSVKGRFTISRDNSKNTVYLQMNSLRAEDTAVYYCAAGSPFRYAGAWNVCGLKEEDYNYWGQGTLVTVSSGGGGSGGGGSQVQLVESGGGSVQPGGSLRLSCAASGYSYSANCVGWFRQAPGKGREGVSAINTGGETATYADFVKGRFTISRDNAKNTVYLQMNSLRAEDTAVYYCAAVGTRKYWDECSLSQHAYKNWGQGTLVTVSSGEPKSSDKTHTCPPCPAPELLGGPSVFLFPPKPKDTLMISRTPEVTCVVVDVSHEDPEVKFNWYVDGVEVHNAKTKPREEQYNSTYRVVSVLTVLHQDWLNGKEYKCKVSNKALPAPIEKTISKAKGQPREPQVCTLPPSREEMTKNQVSLSCAVKGFYPSDIAVEWESNGQPENNYKTTPPVLDSDGSFFLVSKLTVDKSRWQQGNVFSCSVMHEALHNRFTQKSLSLSPGK
heavy: not shown
light: not shown
notes: Three chains, trivalent: 1B-1B6-V2 VHH - 1B-1C7-V1 VHH - Fc plus anti-EGFR Fab arm; knob-into-hole Fc; expressed in FUT8-/- CHO-S cells
Kd [1]: 0.318 nM
koff [1]: 3.34e-05 s⁻¹
kon [1]: 105000 M⁻¹ s⁻¹

B6: anti-EGFR/anti-c-Met multispecific antibody V41 (bispecific antibody, human IgG1, kappa)
chain: B5 chain with H27F, Y29F
heavy: not shown
light: not shown
notes: Three chains, trivalent: 1B-1B6-V1 VHH - 1B-1C7-V1 VHH - Fc plus anti-EGFR Fab arm; knob-into-hole Fc; expressed in FUT8-/- CHO-S cells
Kd [1]: 0.368 nM
koff [1]: 3.57e-05 s⁻¹
kon [1]: 97000 M⁻¹ s⁻¹

Further lines, results first:

endocytic activity EC50, A431 cells (flow cytometry, internalization reagent) [2]: 8.33 nM
endocytic activity EC50, NCI-H441 cells (flow cytometry, internalization reagent) [2]: 16.7 nM
endocytic activity EC50, NCI-H1975 cells (flow cytometry, internalization reagent) [2]: 12.4 nM
EC50 [3]: 0.794 nM
ADCC lysis EC50, KP4 cells, human PBMC effectors [4]: 0.027 nM
ADCC lysis EC50, NCI-H292 cells, human PBMC effectors [4]: 0.0181 nM
IC50 for inhibiting proliferation of KP4 cells (CCK8) [5]: 7.99 nM
IC50 for inhibiting proliferation of NCI-H292 cells (CCK8, with 1 ng/mL HGF) [5]: 5.36 nM
EC50 [6]: 1.91 nM
EC50 [7]: 1.02 nM
Kd [1]: 0.458 nM
koff [1]: 9.03e-05 s⁻¹
kon [1]: 197000 M⁻¹ s⁻¹
B3: anti-EGFR/anti-c-Met multispecific antibody V73 (bispecific antibody, human IgG1, kappa)
chain: B2 chain with A79L
heavy: not shown
light: not shown
notes: as for B2

Kd [1]: 0.276 nM
koff [1]: 7.01e-05 s⁻¹
kon [1]: 254000 M⁻¹ s⁻¹
B4: anti-EGFR/anti-c-Met multispecific antibody V67 (bispecific antibody, human IgG1, kappa)
chain: EVQLVESGGGSVQAQGSLRLSCTVSGSTYSSNFMAWFRQAPGKEREWVATITTGAGNTAYADSVKGRFTISEDNAKRTAYLQMNSLKPEDTAVYYCAAGRGGFWRPAEYDFWGQGTQVTVSSGGGGSQVQLVESGGGSVQPGGSLRLSCAASGYSYSANCVGWFRQAPGKGREGVSAINTGGETATYADFVKGRFTISRDNAKNTVYLQMNSLRAEDTAVYYCAAVGTRKYWDECSLSQHAYKNWGQGTLVTVSSGEPKSSDKTHTCPPCPAPELLGGPSVFLFPPKPKDTLMISRTPEVTCVVVDVSHEDPEVKFNWYVDGVEVHNAKTKPREEQYNSTYRVVSVLTVLHQDWLNGKEYKCKVSNKALPAPIEKTISKAKGQPREPQVCTLPPSREEMTKNQVSLSCAVKGFYPSDIAVEWESNGQPENNYKTTPPVLDSDGSFFLVSKLTVDKSRWQQGNVFSCSVMHEALHNRYTQKSLSLSPGK
heavy: not shown
light: not shown
notes: as for B2

endocytic activity EC50, A431 cells (flow cytometry, internalization reagent) [2]: 10.5 nM
endocytic activity EC50, NCI-H441 cells (flow cytometry, internalization reagent) [2]: 11.8 nM
endocytic activity EC50, NCI-H1975 cells (flow cytometry, internalization reagent) [2]: 9.66 nM
EC50 [3]: 0.755 nM
ADCC lysis EC50, KP4 cells, human PBMC effectors [4]: 0.0117 nM
ADCC lysis EC50, NCI-H292 cells, human PBMC effectors [4]: 0.0135 nM
IC50 for inhibiting proliferation of KP4 cells (CCK8) [5]: 13.1 nM
IC50 for inhibiting proliferation of NCI-H292 cells (CCK8, with 1 ng/mL HGF) [5]: 13.7 nM
EC50 [6]: 1.85 nM
EC50 [7]: 1.03 nM
Kd [1]: 0.438 nM
koff [1]: 4.39e-05 s⁻¹
kon [1]: 100000 M⁻¹ s⁻¹
B7: anti-EGFR/anti-c-Met multispecific antibody V42 (bispecific antibody, human IgG1, kappa)
chain: B5 chain with S63T
heavy: not shown
light: not shown
notes: Three chains, trivalent: 1B-1B6-V3 VHH - 1B-1C7-V1 VHH - Fc plus anti-EGFR Fab arm; knob-into-hole Fc; expressed in FUT8-/- CHO-S cells

endocytic activity EC50, A431 cells (flow cytometry, internalization reagent) [2]: 15.1 nM
endocytic activity EC50, NCI-H441 cells (flow cytometry, internalization reagent) [2]: 35.6 nM
endocytic activity EC50, NCI-H1975 cells (flow cytometry, internalization reagent) [2]: 15.2 nM
EC50 [3]: 0.378 nM
ADCC lysis EC50, KP4 cells, human PBMC effectors [4]: 0.0171 nM
ADCC lysis EC50, NCI-H292 cells, human PBMC effectors [4]: 0.021 nM
IC50 for inhibiting proliferation of KP4 cells (CCK8) [5]: 29 nM
IC50 for inhibiting proliferation of NCI-H292 cells (CCK8, with 1 ng/mL HGF) [5]: 45.8 nM
EC50 [6]: 1.62 nM
EC50 [7]: 0.596 nM
B8: amivantamab (bispecific antibody)
chain 1: not shown
chain 2: not shown
chain 3: not shown
chain 4: DIQMTQSPSSVSASVGDRVTITCRASQGISNWLAWFQHKPGKAPKLLIYAASSLLSGVPSRFSGSGSGTDFTLTISSLQPEDFATYYCQQANSFPITFGQGTRLEIKRTVAAPSVFIFPPSDEQLKSGTASVVCLLNNFYPREAKVQWKVDNALQSGNSQESVTEQDSKDSTYSLSSTLTLSKADYEKHKVYACEVTHQGLSSPVTKSFNRGEC
